Assay results as given in patent US5521072.

Each substance was assayed against recombinant Actinobacillus pleuropneumoniae serotype 7 60 kDa transferrin binding protein (Actinobacillus pleuropneumoniae serotype 7 strain AP205) (assay: competitive ELISA, 50% inhibition value; competitor preincubated with the recombinant 60 kDa protein, solid phase porcine transferrin).

How did the IC50 turn out when “porcine transferrin (TF), iron replete (from UniProt P09571) (ligand)” was run?
The IC50 was 25 µg/mL.

What follows are substances tested against recombinant Actinobacillus pleuropneumoniae serotype 7 60 kDa transferrin binding protein (Actinobacillus pleuropneumoniae serotype 7 strain AP205) (assay: competitive ELISA, 50% inhibition value, solid phase porcine transferrin).

With “human transferrin, iron replete (from UniProt P02787) (ligand)” as the substance, how does the IC50 read?
The IC50 was > 1000 µg/mL.

With “bovine apotransferrin (from UniProt Q29443) (ligand)” as the substance, how does the IC50 read?
The IC50 was > 1000 µg/mL.

Which IC50 does the source give for “human apotransferrin (from UniProt P02787) (ligand)” here?
The IC50 was > 1000 µg/mL.

How did the IC50 turn out when “porcine apotransferrin (from UniProt P09571) (ligand)” was run?
Its IC50 is 150 µg/mL.

For “porcine TF, NH2-terminus (from UniProt P09571) (ligand)”, which IC50 is on record?
Its IC50 is 20 µg/mL.

“bovine transferrin, iron replete (from UniProt Q29443) (ligand)” was tested. Which IC50 did it give?
The IC50 was > 1000 µg/mL.
